# Measured values: publication PMC7192624
# B1: Snu114^72-1008 (isolated) (Saccharomyces cerevisiae S288C) (protein)
# chain: KEVEVLMETKNTQSPQTPLVEPVTERTKLQEHTIFTQLKKNIPKTRYNRDYMLSMANIPERIINVGVIGPLHSGKTSLMDLLVIDSHKRIPDMSKNVELGWKPLRYLDNLKQEIDRGLSIKLNGSTLLCTDLESKSRMINFLDAPGHVNFMDETAVALAASDLVLIVIDVVEGVTFVVEQLIKQSIKNNVAMCFVINKLDRLILDLKLPPMDAYLKLNHIIANINSFTKGNVFSPIDNNIIFASTKLGFTFTIKEFVSYYYAHSIPSSKIDDFTTRLWGSVYYHKGNFRTKPFENVEKYPTFVEFILIPLYKIFSYALSMEKDKLKNLLRSNFRVNLSQEALQYDPQPFLKHVLQLIFRQQTGLVDAITRCYQPFELFDNKTAHLSIPGKSTPEGTLWAHVLKTVDYGGAEWSLVRIYSGLLKRGDTVRILDTSQSESRQKRQLHDISKTETSNEDEDEDDETPSCEVEEIGLLGGRYVYPVHEAHKGQIVLIKGISSAYIKSATLYSVKSKEDMKQLKFFKPLDYITEAVFKIVLQPLLPRELPKLLDALNKISKYYPGVIIKVEESGEHVILGNGELYMDCLLYDLRASYAKIEIKISDPLTVFSESCSNESFASIPVSNSISRLGEENLPGLSISVAAEPMDSKMIQDLSRNTLGKGQNCLDIDGIMDNPRKLSKILRTEYGWDSLASRNVWSFYNGNVLINDTLPDEISPELLSKYKEQIIQGFYWAVKEGPLAEEPIYGVQYKLLSISVPSDVNIDVMKSQIIPLMKKACYVGLLTAIPILLEPIYEVDITVHAPLLPIVEELMKKRRGSRIYKTIKVAGTPLLEVRGQVPVIESAGFETDLRLSTNGLGMCQLYFWHKIWRKVPGDVLDKDAFIPKLKPAPINSLSRDFVMKTRRRKGISTGGFMSNDGPTLEKYISAELYAQLRENGLVP
# notes: residues 72-1008 (acidic N-terminal region truncated), C-terminal Strep tag (pIDS-C-Strep), synthetic gene, recombinant in insect cells (MultiBac)
# Substrate: Nc1nc2c(ncn2[C@@H]2O[C@H](COP(=O)(O)OP(=O)(O)OP(=O)(O)O)[C@@H](O)[C@H]2O)c(=O)[nH]1
# Assay: purified protein
# Format: biochemical, Saccharomyces cerevisiae
# Settings: pH 8.0, 300 mM NaCl, 5 mM MgCl2, 30°C, labelled compound, Snu114 without Prp8
protein,measurement,value
B1,Km,578.4 µM
same,kcat,0.001012 s⁻¹
